Data published in article PMC12188478, “Leveraging the Aminothiol-Specific Phosphorogenic Response of Iridium(III) Thioester Complexes for the Development of Intracellular Sensors and Cancer Phototherapeutics” (JACS Au, 2025).
Peptide text beside a SMILES is read from it. * marks the point of attachment. X1 = Cc1cc[n+]2c(c1)-c1cc(C(=O)*)cc[n+]1[Ir-3]213([c]2c(sc4ccccc24)-c2c4ccccc4cc[n+]21)[c]1c(sc2ccccc12)-c1c2ccccc2cc[n+]13; Isonicotinoyl(2-(4-Me-2-Py)) = Cc1ccnc(-c2cc(C(=O)*)ccn2)c1

What was measured:
MDA-MB-231 cells [1] = experiment: MTT (photo)cytotoxicity assay; assay type: cell-based; details: ratio IC50,dark/IC50,light, 24 h incubation
Protocol: (§1) HeLa or HEK-293 cells were seeded in two 96-well flat-bottomed microplates (ca. 10,000 cells per well) in growth medium (100 μL) and incubated at 37 °C under a 5% CO2 atmosphere for 48 h. The growth medium was removed and replaced with medium/DMSO (100 μL, 99:1, v/v) containing complex 3a with concentrations ranging from 10^–5 to 10^–8 M. Wells containing untreated cells were used as blank control. The microplates were incubated at 37 °C in the dark under a 5% CO2 atmosphere for 2 h. After the treatment, the medium was removed and replenished with phenol red-free growth medium (100 μL). One of the microplates was irradiated at 450 nm (14.6 mW cm^–2) for 10 min with an LED cellular photocytotoxicity irradiator (PURI Materials, Shenzhen, China) and the other microplate was kept in the dark. Then the growth medium was replaced with fresh medium and the cells were further incubated at 37 °C under a 5% CO2 atmosphere for 24 h. The medium in each well was then replaced with fresh medium (90 μL) and 10 μL of MTT (5 mg mL^ –1) in PBS. The microplates were incubated at 37 °C under a 5% CO2 atmosphere for 4 h. The growth medium was then removed, and DMSO (100 μL) was added to each well. After 20 min, the absorbance of the solutions at 570 nm was measured with an Multiskan SkyHigh Microplate Spectrophotometer (Thermo Scientific). The IC50 values of the complex were determined from dose dependence of surviving cells after the treatment using the OriginPro 8.0 software package. For conjugates 3a-CASP, 3a-CYNT, and 3a-CMYI, the procedure was similar to that of complex 3a, except that MDA-MB-231, MCF-7, and HEK-293 cells were used and the conjugates were incubated for 24 h instead of 2 h before irradiation.

HEK-293 cells [2] = experiment: MTT (photo)cytotoxicity assay; assay type: cell-based; details: ratio IC50,dark/IC50,light, 24 h incubation
Protocol: as §1

MCF-7 cells [3] = experiment: MTT (photo)cytotoxicity assay; assay type: cell-based; details: ratio IC50,dark/IC50,light, 24 h incubation
Protocol: as §1

MDA-MB-231 cells [4] = experiment: Cellular uptake by ICP-MS; assay type: cell-based; details: 10 μM, 37 °C, 16 h
Protocol: (§2) HeLa or HEK-293 cells were seeded in a 35-mm tissue culture dish and incubated at 37 °C under a 5% CO2 atmosphere for 48 h. The culture medium was removed and replaced with complexes 1a and 3a (10 μM) in medium/DMSO (99:1, v/v) at 37 °C under a 5% CO2 atmosphere for 2 h. After the treatment, the medium was removed, and the cells were washed with PBS (1 mL × 3). The cells were then trypsinized and harvested with PBS (1 mL). The cell numbers were obtained by a Logos Biosystems LUNA-II automated cell counter. The resultant solution was digested with 65% HNO3 (1 mL) at 70 °C for 2 h, allowed to cool to room temperature, and analyzed by a NexION 2000 ICP-MS (PerkinElmer SCIEX Instruments). For conjugates 3a-Cys, 3a-CASP, 3a-CYNT, and 3a-CMYI, the procedure was similar to that of complexes 1a and 3a, except that MDA-MB-231, MCF-7, and HEK-293 cells were used and the conjugates were incubated for 16 h instead of 2 h before the measurements.

HEK-293 cells [5] = experiment: Cellular uptake by ICP-MS; assay type: cell-based; details: 10 μM, 37 °C, 16 h
Protocol: as §2

MCF-7 cells [6] = experiment: Cellular uptake by ICP-MS; assay type: cell-based; details: 10 μM, 37 °C, 16 h
Protocol: as §2

[7] = 1O2 generation quantum yield; assay type: physicochemical; details: aerated CH3CN/H2O (4:1, v/v), 298 K, λex 450 nm
Protocol: The ^1O2 generation efficiencies of all complexes were evaluated by monitoring the emission band of ^1O2 centered at ca. […]

MDA-MB-231 cells [8] = experiment: Cellular uptake mechanism studies (ICP-MS); assay type: cell-based; details: 10 μM
Protocol: Conjugate 3a-CASP: MDA-MB-231 cells were seeded in a 35-mm tissue culture dish and incubated at 37 °C under a 5% CO2 atmosphere for 48 h. The culture medium was removed and replaced with conjugate 3a-CASP (10 μM) in medium/DMSO (99:1, v/v) at 37 °C under a 5% CO2 atmosphere for 4 or 16 h. In the low-temperature experiments, the cells were preincubated at 4 °C for 1 h prior to incubation with conjugate 3a-CASP (10 μM) in medium/DMSO (99:1, v/v) […]. In the chemical inhibition experiments, the cells were pretreated with EIPA (50 μM) for 1.5 h, Me-β-CD (5 mM) for 1 h, or chlorpromazine (30 μM) for 1 h at 37 °C under a 5% CO2 atmosphere. The cells were then washed with PBS (1 mL × 3) and incubated with conjugate 3a-CASP (10 μM) in medium/DMSO (99:1, v/v) at 37 °C under a 5% CO2 atmosphere for 16 h.
(§3) Conjugate 3a-CYNT: MDA-MB-231 cells were seeded in a 35-mm tissue culture dish and incubated at 37 °C under a 5% CO2 atmosphere for 48 h. The culture medium was removed and replaced with conjugate 3a-CYNT (10 μM) in medium/DMSO (99:1, v/v) at 37 °C under a 5% CO2 atmosphere for 16 h. In the CAIX inhibition experiments, the cells were pretreated with acetazolamide (1 mM) at 37 °C under a 5% CO2 atmosphere for 6 h. The cells were then washed with PBS (1 mL × 3) and incubated with conjugate 3a-CYNT (10 μM) in medium/DMSO (99:1, v/v) at 37 °C under a 5% CO2 atmosphere for 16 h.
as §3, with “Conjugate 3a-CMYI:” for “Conjugate 3a-CYNT:”, “conjugate 3a-CMYI” for “conjugate 3a-CYNT”, “the EGFR” for “the CAIX”, “with gefitinib (50 μM)” for “with acetazolamide (1 mM)”, “for 1” for “for 6”
For all the experiments, after incubation with the conjugates, the medium was removed, and the cells were washed with PBS (1 mL × 3). The cells were then trypsinized and harvested with PBS (1 mL). The cell numbers were measured by a Logos Biosystems LUNA-II automated cell counter. The resultant solution was digested with 65% HNO3 (1 mL) at 70 °C for 2 h, allowed to cool to room temperature, and analyzed by a NexION 2000 ICP-MS (PerkinElmer SCIEX Instruments).

[9] = Reaction kinetics with L-Cys by HPLC; details: potassium phosphate buffer (50 mM, pH 7.0)/DMSO (3:2, v/v), TCEP 250 μM, 298 K
Protocol: The reactivity of the thioester complexes 1a–4a toward N-Cys-containing biomolecules in potassium phosphate buffer (50 mM, pH 7.0)/DMSO (3:2, v/v) containing tris(2-carboxyethyl)-phosphine (TCEP) (250 μM) at 298 K (Scheme ) were investigated using L-Cys as a model. […] The formation of the conjugation products 1a-Cys–4a-Cys was validated by ESI-MS analyses (Figure S7). The isolated conjugate 1a-Cys was further characterized by 1D and 2D COSY ^1H NMR. The signals at δ = 8.18 and 1.89 ppm in the ^1H NMR spectra (Figures S8 and S9) correspond to the CONH and SH protons, respectively, confirming the successful labeling of L-Cys with the thioester complex via the NCL reaction involving transthioesterification and an S → N acyl shift. […]
All reactions were performed on a 100-µL scale. The reaction kinetics of the thioester complexes 1a – 4a (20 µM) and ligand bpy-COSBn (100 µM) with L-Cys (25 µM for the complexes and 250 µM for the ligand) in potassium phosphate buffer (50 mM, pH 7.0)/DMSO (3:2, v/v) containing TCEP (250 µM) at 298 K was measured by reversed-phase high-performance liquid chromatography (RP-HPLC). The reactions at different time points were quenched by the addition of 900 µL of cold H2O/CH3CN (1:1, v/v) and then analyzed by RP-HPLC. […] The second-order rate constants (k2) were determined by fitting the data to the following equation: […]

Compound	PI (MDA-MB-231 cells [1])	PI (HEK-293 cells [2])	PI (MCF-7 cells [3])	Amount of iridium associated with an average cell (MDA-MB-231 cells [4]) [fmol]	Amount of iridium associated with an average cell (HEK-293 cells [5]) [fmol]	Amount of iridium associated with an average cell (MCF-7 cells [6]) [fmol]	1O2 generation quantum yield (ΦΔ) [7]	reduction of uptake after gefitinib (EGFR inhibitor) pretreatment (MDA-MB-231 cells [8]; 16 h, gefitinib 50 μM, 1 h) [%]	reduction of uptake after acetazolamide (CAIX inhibitor) pretreatment (MDA-MB-231 cells [8]; 16 h, acetazolamide 1 mM, 6 h)	decrease in intracellular iridium content at 4 °C (MDA-MB-231 cells [8]; 4 h, 4 °C versus 37 °C)	reduction of cellular uptake efficiency after chlorpromazine pretreatment (MDA-MB-231 cells [8]; 16 h, chlorpromazine 30 μM, 1 h)	second-order rate constant (k2) for reaction with L-Cys [9] [M^–1 s^–1]
CC[C@H](C)[C@H](NC(=O)[C@H](Cc1ccc(O)cc1)NC(=O)[C@H](CCSC)NC(=O)[C@H](CS)NC(=O)c1cc[n+]2c(c1)-c1cc(C)cc[n+]1[Ir-3]213([c]2c(sc4ccccc24)-c2c4ccccc4cc[n+]21)[c]1c(sc2ccccc12)-c1c2ccccc2cc[n+]13)C(=O)N[C@@H](CCC(=O)O)C(=O)N[C@@H](C)C(=O)N[C@@H](CC(C)C)C(=O)N[C@@H](CC(=O)O)C(=O)N[C@@H](CCCCN)C(=O)N[C@@H](Cc1ccc(O)cc1)C(=O)N[C@@H](C)C(=O)N[C@@H](CS)C(=O)O [Conjugate 3a-CMYI] (X1-CMYIEALDKYAC-OH; C-terminus assumed)	>109	>28	>25	0.21	0.033	0.074	0.20	~10				
Cc1cc[n+]2c(c1)-c1cc(C(=O)N[C@@H](CS)C(=O)N[C@@H](Cc3ccc(O)cc3)C(=O)N[C@@H](CC(N)=O)C(=O)N[C@H](C(=O)N[C@@H](CC(N)=O)C(=O)N[C@@H](Cc3c[nH]cn3)C(=O)N[C@H](C(=O)N3CCC[C@H]3C(=O)N[C@@H](CC(C)C)C(=O)N[C@@H](CO)C(=O)N3CCC[C@H]3C(=O)N[C@@H](CCCCN)C(=O)N[C@@H](Cc3ccc(O)cc3)C(=O)O)C(C)C)[C@@H](C)O)cc[n+]1[Ir-3]213([c]2c(sc4ccccc24)-c2c4ccccc4cc[n+]21)[c]1c(sc2ccccc12)-c1c2ccccc2cc[n+]13 [Conjugate 3a-CYNT] (X1-CYNTNHVPLSPKY-OH; C-terminus assumed)	>139	>45	>38	1.8	0.10	0.10	0.28		ca. 20%			
Cc1ccnc(-c2cc(C(=O)N[C@@H](CS)C(=O)N[C@@H](C)C(=O)N[C@@H](CO)C(=O)N3CCC[C@H]3C(=O)N[C@@H](CO)C(=O)NCC(=O)N[C@@H](C)C(=O)N[C@@H](CC(C)C)C(=O)N[C@@H](CCCNC(=N)N)C(=O)N[C@@H](CO)C(=O)N[C@@H](CS)C(=O)O)ccn2)c1 [Conjugate 3a-CASP] ({Isonicotinoyl(2-(4-Me-2-Py))}-CASPSGALRSC-OH; C-terminus assumed)	>61	>18	>18	1.6	0.074	0.10	0.24			ca. 70%	ca. 30%	
Cc1ccnc(-c2cc(C(=O)SCc3ccccc3)ccn2)c1 [bpy-COSBn, S-benzyl 4’-methyl-2,2’-bipyridine-4-carbothioate]												11.3
